From paper PMC12051234, “NrdR in Streptococcus and Listeria spp.: DNA Helix Phase Dependence of the Bacterial Ribonucleotide Reductase Repressor” come the findings set out here.

Broadly, the Kd is a measure of binding affinity in units of concentration.

Common to all, as to assay: MST; dATP + ATP; MST, temperature not stated. Lmo: 25 mM Bis-Tris propane pH 6.5, 100 mM KCl, 5 mM MgCl2, 5% glycerol, 1 mM DTT, 0.05% Tween 20, one nucleotide 1 mM or two at 0.5 mM each; Spn: 25 mM HEPES pH 7.2, 250 mM NaCl, 2.5 mM MgCl2, 15% glycerol, 2 mM DTT, 0.1 mg/mL BSA, 0.05% Tween 20, 0.5 mM ATP and/or dATP; Eco: 25 mM Tris pH 8.5, 100 mM NaCl, 7 mM MgCl2, 1 mM DTT, 0.025% Tween 20, 1 mM ATP + 1 mM dATP; …

One data set deals with T1, EcoNrdR (Escherichia coli, UniProt P0A8D0 1-149).
T1 sequence: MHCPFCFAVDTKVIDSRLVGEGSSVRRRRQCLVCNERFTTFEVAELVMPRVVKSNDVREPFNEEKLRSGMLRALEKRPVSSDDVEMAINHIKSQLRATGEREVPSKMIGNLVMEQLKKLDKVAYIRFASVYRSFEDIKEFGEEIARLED
As to conditions: protein: recombinant; chain copies: 4; label: 5'-Cy5 sense; blunt.

Another data set has as its target T2, SpnNrdR (Streptococcus pneumoniae TIGR4, UniProt P67318 1-157).
T2 sequence: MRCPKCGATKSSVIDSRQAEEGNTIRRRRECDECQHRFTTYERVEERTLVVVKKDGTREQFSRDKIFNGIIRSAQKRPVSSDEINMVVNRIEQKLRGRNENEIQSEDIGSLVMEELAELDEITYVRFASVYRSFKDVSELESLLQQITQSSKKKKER
As to conditions: protein: recombinant; tags: C-terminal His6; chain copies: 4; label: 5'-Cy5 sense; blunt.

The next data set deals with T3, ScoNrdR (Streptomyces coelicolor, UniProt O69980 1-182).
T3 sequence: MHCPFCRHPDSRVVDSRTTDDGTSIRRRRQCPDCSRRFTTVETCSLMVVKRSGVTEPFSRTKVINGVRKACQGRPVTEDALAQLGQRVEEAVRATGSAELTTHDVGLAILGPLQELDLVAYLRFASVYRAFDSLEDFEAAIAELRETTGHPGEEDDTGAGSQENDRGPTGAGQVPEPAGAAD
As to conditions: protein: recombinant; chain copies: 4; label: 5'-Cy5 sense; blunt.

For a further data set, the target named is T4, LmoNrdR (Listeria monocytogenes serotype 1/2a …, UniProt Q8Y6W9 1-154).
T4 sequence: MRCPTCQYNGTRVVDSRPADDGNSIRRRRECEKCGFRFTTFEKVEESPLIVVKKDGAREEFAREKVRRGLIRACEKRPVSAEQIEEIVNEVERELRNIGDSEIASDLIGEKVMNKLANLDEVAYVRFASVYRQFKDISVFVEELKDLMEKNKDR
As to conditions: protein: recombinant; tags: C-terminal His6; chain copies: 4; label: 5'-Cy5 sense; blunt.

B1: Eco nrdHIEF box 2 duplicated (dsDNA)
DNA 1: GTCTCCAACTACATCTAGTATGGTTGAATCTTTTTTCAACTACATCTAGTATCTCTG
DNA 2: CAGAGATACTAGATGTAGTTGAAAAAAGATTCAACCATACTAGATGTAGTTGGAGAC
Turning to B1, the Kd with EcoNrdR worked out at 0.099 ± 0.033 µM.

B2: Sth nrdHEF (16 bp spacer) (dsDNA)
DNA 1: TCAAAACACAAGATATAGGGTTGTGTTTCAATACTAAACACAAAATATTGTATTCCTT
DNA 2: AAGGAATACAATATTTTGTGTTTAGTATTGAAACACAACCCTATATCTTGTGTTTTGA
B2: the Kd in the data set with SpnNrdR is 0.8 ± 0.25 µM.

B3: Synt 19 bp spacer (dsDNA)
DNA 1: GCCAAACACAACATCTAGTGGTTGGATAGCGTGAAGTAGCACACAACATCTAGTGGACCTC
DNA 2: GAGGTCCACTAGATGTTGTGTGCTACTTCACGCTATCCAACCACTAGATGTTGTGTTTGGC
B3: the Kd with ScoNrdR is 1.66 ± 0.221 µM; in the data set with EcoNrdR, 0.601 ± 0.113 µM; with SpnNrdR it was 11.6 ± 0.34 µM; in the data set with LmoNrdR it was 0.051 ± 0.007 µM.

B4: Synt 16 bp spacer (dsDNA)
DNA 1: GCCAAACACAACATCTAGTGGTTGGATAGCGTGAAGCACACAACATCTAGTGGACCTC
DNA 2: GAGGTCCACTAGATGTTGTGTGCTTCACGCTATCCAACCACTAGATGTTGTGTTTGGC
For the molecule B4, the Kd was 0.028 ± 0.007 µM in the data set with ScoNrdR, 0.082 ± 0.022 µM with EcoNrdR, 0.041 ± 0.011 µM in the data set with SpnNrdR and 0.001 ± 0.0004 µM with LmoNrdR.

B5: Synt 25 bp spacer (dsDNA)
DNA 1: GCCAAACACAACATCTAGTGGTTGGATAGCGTGAAGTTCACCTAGCACACAACATCTAGTGGACCTC
DNA 2: GAGGTCCACTAGATGTTGTGTGCTAGGTGAACTTCACGCTATCCAACCACTAGATGTTGTGTTTGGC
For B5, the Kd with ScoNrdR was found to be 4.05 ± 0.272 µM; with EcoNrdR, 0.326 ± 0.044 µM; with SpnNrdR, 4.37 ± 0.343 µM; in the data set with LmoNrdR, 0.025 ± 0.012 µM.

B6: Synt 12 bp spacer (dsDNA)
DNA 1: GCCAAACACAACATCTAGTGGTTGGATAGGAGCACACAACATCTAGTGGACCTC
DNA 2: GAGGTCCACTAGATGTTGTGTGCTCCTATCCAACCACTAGATGTTGTGTTTGGC
As for B6, the Kd with ScoNrdR was 0.58 ± 0.079 µM; with EcoNrdR, 1.38 ± 0.309 µM; with SpnNrdR, 5.06 ± 0.511 µM; with LmoNrdR it was 0.037 ± 0.006 µM.

B7: Synt 24 bp spacer (dsDNA)
DNA 1: GCCAAACACAACATCTAGTGGTTGGATAGCGTGAATTCACCTAGCACACAACATCTAGTGGACCTC
DNA 2: GAGGTCCACTAGATGTTGTGTGCTAGGTGAATTCACGCTATCCAACCACTAGATGTTGTGTTTGGC
As to B7, the Kd with ScoNrdR is 0.763 ± 0.104 µM; with EcoNrdR, 0.141 ± 0.034 µM; with SpnNrdR, 9.2 ± 0.374 µM; in the data set with LmoNrdR it was 0.026 ± 0.003 µM.

B8: Synt 14 bp spacer (dsDNA)
DNA 1: GCCAAACACAACATCTAGTGGTTGGATAGCTGAGCACACAACATCTAGTGGACCTC
DNA 2: GAGGTCCACTAGATGTTGTGTGCTCAGCTATCCAACCACTAGATGTTGTGTTTGGC
For the molecule B8, the Kd in the data set with ScoNrdR came to 0.154 ± 0.028 µM; with EcoNrdR it was 0.169 ± 0.027 µM; in the data set with SpnNrdR, 0.699 ± 0.109 µM; with LmoNrdR it was 0.002 ± 0.0005 µM.

B9: Synt 18 bp spacer (dsDNA)
DNA 1: GCCAAACACAACATCTAGTGGTTGGATAGCGTGAAGTGCACACAACATCTAGTGGACCTC
DNA 2: GAGGTCCACTAGATGTTGTGTGCACTTCACGCTATCCAACCACTAGATGTTGTGTTTGGC
For B9, the Kd with ScoNrdR worked out at 0.476 ± 0.08 µM; with EcoNrdR it was 0.066 ± 0.012 µM; with SpnNrdR it was 6.6 ± 0.536 µM; with LmoNrdR, 0.003 ± 0.0006 µM.

B10: Synt 13 bp spacer (dsDNA)
DNA 1: GCCAAACACAACATCTAGTGGTTGGATAGTGAGCACACAACATCTAGTGGACCTC
DNA 2: GAGGTCCACTAGATGTTGTGTGCTCACTATCCAACCACTAGATGTTGTGTTTGGC
For the molecule B10, the Kd was 0.158 ± 0.019 µM with ScoNrdR, 0.117 ± 0.024 µM in the data set with EcoNrdR, 3.94 ± 0.29 µM with SpnNrdR and 0.011 ± 0.0018 µM in the data set with LmoNrdR.

B11: Synt 26 bp spacer (dsDNA)
DNA 1: GCCAAACACAACATCTAGTGGTTGGATAGCGTGAAGTTCCACCTAGCACACAACATCTAGTGGACCTC
DNA 2: GAGGTCCACTAGATGTTGTGTGCTAGGTGGAACTTCACGCTATCCAACCACTAGATGTTGTGTTTGGC
Consider B11, for which the dissociation constant Kd was determined as 4.4 ± 0.355 µM with ScoNrdR, 0.024 ± 0.007 µM with EcoNrdR and 2.91 ± 0.225 µM in the data set with SpnNrdR.

B12: Synt 15 bp spacer (dsDNA)
DNA 1: GCCAAACACAACATCTAGTGGTTGGATAGCGTGAGCACACAACATCTAGTGGACCTC
DNA 2: GAGGTCCACTAGATGTTGTGTGCTCACGCTATCCAACCACTAGATGTTGTGTTTGGC
With B12, the Kd with ScoNrdR came out at 0.045 ± 0.013 µM; with SpnNrdR, 0.055 ± 0.014 µM; with LmoNrdR, 0.001 ± 0.0002 µM.

B13: Eco nrdHIEF box 1 duplicated (dsDNA)
DNA 1: GTCTCTTGCTATATATTGTGTGGTTGAATCTTTTTTTTGCTATATATTGTGTCTCTG
DNA 2: CAGAGACACAATATATAGCAAAAAAAAGATTCAACCACACAATATATAGCAAGAGAC
In the case of B13, the Kd with EcoNrdR was 0.213 ± 0.04 µM.

B14: Sth nrdDG (16 bp spacer) (dsDNA)
DNA 1: TCGAAAATCAATATATAGTGGTTGAGATAAAAATATACCACAATATATTGATTTTCCT
DNA 2: AGGAAAATCAATATATTGTGGTATATTTTTATCTCAACCACTATATATTGATTTTCGA
Regarding B14, in the data set with SpnNrdR, the Kd was found to be 1.15 ± 0.32 µM.

B15: Synt 20 bp spacer (dsDNA)
DNA 1: GCCAAACACAACATCTAGTGGTTGGATAGCGTGACAGTAGCACACAACATCTAGTGGACCTC
DNA 2: GAGGTCCACTAGATGTTGTGTGCTACTGTCACGCTATCCAACCACTAGATGTTGTGTTTGGC
On to B15, for which the Kd in the data set with ScoNrdR was 2.19 ± 0.449 µM; with EcoNrdR it was 3.32 ± 0.54 µM; with SpnNrdR, 12.3 ± 0.388 µM; with LmoNrdR it was 0.122 ± 0.01 µM.

B16: Synt 17 bp spacer (dsDNA)
DNA 1: GCCAAACACAACATCTAGTGGTTGGATAGCGTGAAGGCACACAACATCTAGTGGACCTC
DNA 2: GAGGTCCACTAGATGTTGTGTGCCTTCACGCTATCCAACCACTAGATGTTGTGTTTGGC
As for B16, the Kd with ScoNrdR worked out at 0.021 ± 0.007 µM; with EcoNrdR, 0.045 ± 0.006 µM; with SpnNrdR, 0.34 ± 0.083 µM; in the data set with LmoNrdR it was 0.001 ± 0.0004 µM.
